Publication PMC11109279, “Heliorhodopsin-mediated light-modulation of ABC transporter” (Nature Communications, 2024)

Legend:
[1] = biological target: T1, NBD-truncated OmrDE (OmrD^tcE^tc) (Omithinimicrobium cerasi strain USBA17B2); assay: ITC; replicate #1
T1 chain 1: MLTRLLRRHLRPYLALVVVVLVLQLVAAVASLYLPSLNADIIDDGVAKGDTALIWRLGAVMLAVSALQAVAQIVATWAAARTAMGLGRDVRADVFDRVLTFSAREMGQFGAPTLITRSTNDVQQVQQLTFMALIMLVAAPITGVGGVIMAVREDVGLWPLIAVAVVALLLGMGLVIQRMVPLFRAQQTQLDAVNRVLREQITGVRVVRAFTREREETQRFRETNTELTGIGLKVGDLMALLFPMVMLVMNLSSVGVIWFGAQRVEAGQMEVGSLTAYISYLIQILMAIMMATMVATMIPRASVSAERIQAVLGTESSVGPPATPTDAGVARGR
T1 chain 2: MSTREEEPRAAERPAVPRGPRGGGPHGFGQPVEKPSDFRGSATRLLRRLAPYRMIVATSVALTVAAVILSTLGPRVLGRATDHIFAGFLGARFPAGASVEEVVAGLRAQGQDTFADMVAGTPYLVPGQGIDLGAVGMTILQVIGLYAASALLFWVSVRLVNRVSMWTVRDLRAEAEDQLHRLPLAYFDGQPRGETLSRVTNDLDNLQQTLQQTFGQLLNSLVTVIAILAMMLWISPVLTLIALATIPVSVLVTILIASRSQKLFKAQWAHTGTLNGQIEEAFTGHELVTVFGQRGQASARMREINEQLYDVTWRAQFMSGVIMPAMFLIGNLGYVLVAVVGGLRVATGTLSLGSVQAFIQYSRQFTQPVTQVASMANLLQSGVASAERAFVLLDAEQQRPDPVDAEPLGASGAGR

[2] = biological target: T2, heterodimeric multidrug resistance ABC transporter OmrDE (Omithinimicrobium cerasi strain USBA17B2, UniProt A0A285VW85 1-577; A0A285VWG3 1-661); assay: cell-based or functional assay
T2 sequence (looked up) 1: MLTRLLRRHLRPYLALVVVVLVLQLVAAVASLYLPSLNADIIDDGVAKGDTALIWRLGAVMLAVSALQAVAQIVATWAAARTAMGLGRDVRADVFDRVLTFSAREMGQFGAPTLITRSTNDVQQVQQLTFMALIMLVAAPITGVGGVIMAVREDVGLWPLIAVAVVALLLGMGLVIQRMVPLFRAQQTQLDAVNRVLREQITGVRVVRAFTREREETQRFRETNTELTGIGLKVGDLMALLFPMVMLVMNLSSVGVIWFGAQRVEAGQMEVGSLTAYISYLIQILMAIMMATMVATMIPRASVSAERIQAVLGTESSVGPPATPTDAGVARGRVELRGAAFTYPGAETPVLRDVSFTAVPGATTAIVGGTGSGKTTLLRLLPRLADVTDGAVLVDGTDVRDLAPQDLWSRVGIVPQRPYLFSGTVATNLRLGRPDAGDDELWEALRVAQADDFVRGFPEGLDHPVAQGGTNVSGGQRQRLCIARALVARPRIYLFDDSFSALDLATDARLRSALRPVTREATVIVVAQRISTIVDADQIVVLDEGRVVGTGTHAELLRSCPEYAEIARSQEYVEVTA
T2 sequence (looked up) 2: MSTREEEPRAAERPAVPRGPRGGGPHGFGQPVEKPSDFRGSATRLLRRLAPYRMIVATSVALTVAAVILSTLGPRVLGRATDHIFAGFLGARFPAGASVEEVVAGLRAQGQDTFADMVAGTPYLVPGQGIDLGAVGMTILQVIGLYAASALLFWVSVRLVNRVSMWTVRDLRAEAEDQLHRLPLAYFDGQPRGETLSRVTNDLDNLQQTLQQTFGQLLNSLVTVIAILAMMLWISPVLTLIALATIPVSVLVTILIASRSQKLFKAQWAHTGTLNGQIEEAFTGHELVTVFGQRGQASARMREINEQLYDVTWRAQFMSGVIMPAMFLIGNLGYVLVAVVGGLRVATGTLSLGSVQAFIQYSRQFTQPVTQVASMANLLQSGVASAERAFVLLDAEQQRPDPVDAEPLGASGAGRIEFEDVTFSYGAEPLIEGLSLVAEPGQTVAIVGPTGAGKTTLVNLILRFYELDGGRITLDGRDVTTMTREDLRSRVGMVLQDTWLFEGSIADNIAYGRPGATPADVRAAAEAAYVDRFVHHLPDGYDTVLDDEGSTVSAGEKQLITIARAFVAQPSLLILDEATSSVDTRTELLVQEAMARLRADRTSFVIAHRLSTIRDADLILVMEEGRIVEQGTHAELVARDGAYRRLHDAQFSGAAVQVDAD

OmrE (OmrE-His) [3] = biological target: T3, OmrE (OmrE-His) (Omithinimicrobium cerasi strain USBA17B2, UniProt A0A285VWG3 1-661); assay: ITC; replicate #2
T3 chain: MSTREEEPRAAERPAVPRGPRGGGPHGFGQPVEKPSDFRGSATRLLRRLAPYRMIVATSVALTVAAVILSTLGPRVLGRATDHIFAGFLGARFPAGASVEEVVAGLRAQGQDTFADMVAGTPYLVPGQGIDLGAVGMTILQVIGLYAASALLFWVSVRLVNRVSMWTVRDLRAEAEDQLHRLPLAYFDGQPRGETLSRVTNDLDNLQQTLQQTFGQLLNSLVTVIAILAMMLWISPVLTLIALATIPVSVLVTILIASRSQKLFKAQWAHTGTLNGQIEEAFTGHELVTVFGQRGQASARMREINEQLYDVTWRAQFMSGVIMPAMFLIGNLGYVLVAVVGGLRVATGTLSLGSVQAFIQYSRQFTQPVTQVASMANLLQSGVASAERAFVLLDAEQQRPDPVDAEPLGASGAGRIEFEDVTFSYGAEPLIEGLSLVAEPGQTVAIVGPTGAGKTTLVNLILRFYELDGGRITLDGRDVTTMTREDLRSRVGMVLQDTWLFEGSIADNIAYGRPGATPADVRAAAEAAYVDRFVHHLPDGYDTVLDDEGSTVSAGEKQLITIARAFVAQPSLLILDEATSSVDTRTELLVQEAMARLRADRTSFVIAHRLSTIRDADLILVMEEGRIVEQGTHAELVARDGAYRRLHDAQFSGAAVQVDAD

[4] = biological target: T1, NBD-truncated OmrDE (OmrD^tcE^tc); assay: ITC; replicate #2
[5] = biological target: T4, heterodimeric multidrug resistance ABC transporter OmrDE (Omithinimicrobium cerasi strain USBA17B2, UniProt A0A285VW85 1-577; A0A285VWG3 1-661); assay: ITC; replicate #2
T4 chain 1: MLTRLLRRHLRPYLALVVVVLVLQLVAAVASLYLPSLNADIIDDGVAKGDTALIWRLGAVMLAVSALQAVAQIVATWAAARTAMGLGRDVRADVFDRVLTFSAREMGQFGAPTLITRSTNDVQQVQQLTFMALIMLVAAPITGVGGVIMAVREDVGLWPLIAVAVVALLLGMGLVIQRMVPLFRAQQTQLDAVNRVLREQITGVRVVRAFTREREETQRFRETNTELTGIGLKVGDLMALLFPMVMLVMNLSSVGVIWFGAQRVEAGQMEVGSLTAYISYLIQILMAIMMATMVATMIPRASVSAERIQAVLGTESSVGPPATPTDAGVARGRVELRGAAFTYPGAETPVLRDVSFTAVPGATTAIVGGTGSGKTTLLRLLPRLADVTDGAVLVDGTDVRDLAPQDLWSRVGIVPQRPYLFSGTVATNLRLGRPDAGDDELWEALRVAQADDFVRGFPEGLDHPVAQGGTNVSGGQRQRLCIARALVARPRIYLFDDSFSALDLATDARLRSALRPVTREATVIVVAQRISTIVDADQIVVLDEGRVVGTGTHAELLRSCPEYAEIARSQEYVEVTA
T4 chain 2: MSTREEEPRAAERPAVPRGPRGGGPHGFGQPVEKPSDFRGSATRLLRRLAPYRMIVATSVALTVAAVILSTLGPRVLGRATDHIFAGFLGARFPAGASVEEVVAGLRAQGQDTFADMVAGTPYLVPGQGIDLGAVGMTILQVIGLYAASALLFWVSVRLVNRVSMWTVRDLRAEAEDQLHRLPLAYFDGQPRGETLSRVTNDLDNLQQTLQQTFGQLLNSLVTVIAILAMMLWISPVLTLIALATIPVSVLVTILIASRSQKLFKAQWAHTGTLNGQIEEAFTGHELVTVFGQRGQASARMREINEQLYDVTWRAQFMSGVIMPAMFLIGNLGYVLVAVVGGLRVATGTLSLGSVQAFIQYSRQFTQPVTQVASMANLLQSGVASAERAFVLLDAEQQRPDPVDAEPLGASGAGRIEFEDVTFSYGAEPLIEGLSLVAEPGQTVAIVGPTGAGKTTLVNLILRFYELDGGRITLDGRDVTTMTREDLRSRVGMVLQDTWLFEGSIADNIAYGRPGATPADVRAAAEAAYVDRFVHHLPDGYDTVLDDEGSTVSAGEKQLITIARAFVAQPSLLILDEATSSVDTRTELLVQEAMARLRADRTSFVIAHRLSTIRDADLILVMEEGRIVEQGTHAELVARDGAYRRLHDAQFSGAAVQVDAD

[6] = biological target: T2, heterodimeric multidrug resistance ABC …; assay: cell-based or functional assay; remark: listed apart in the source
[7] = biological target: T4, heterodimeric multidrug resistance ABC …; assay: ITC; replicate #4
OmrE (OmrE-His) [8] = biological target: T3, OmrE (OmrE-His); assay: ITC; replicate #3
[9] = biological target: T1, NBD-truncated OmrDE (OmrD^tcE^tc); assay: ITC; replicate #3

B1: Omithinimicrobium cerasi strain USBA17B2 heliorhodopsin (OcHeR) WT (natural protein, UniProt A0A285W045 1-266, looked up)
chain: MGSTGTGSTASTTRADESRYAGLRRYNVVAAVVHAAQAVAVVVLATDFTLPMTASYLAGPPGSPPGEAVTLWDVPIPLAIATFLALSALFHVIVASPPFFDRYRRGLAQGHNYFRWVEYSLSSSLMIVIIAQLVGISDVVALLGLFGVNASMILFGWLQEKYHQPGDGGWLPFVFGCLAGAVPWVGIVLYTIAPGSTSGAEPPGFVYGIIVSLFLFFNVFALVQWLQYRPVGRFRDYLLGERLYITLSLVAKSALAWQIFGGTLAT
modifications: retinal Schiff base linked to K252
notes: gene codon-optimized for E. coli and chemically synthesized; source: E. coli C43 (DE3), purified (DDM-solubilized membrane fraction, Ni2+-NTA agarose)
Kd [1]: 42 µM
kcat/Km of ATP hydrolysis of purified OmrDE with OcHeR WT (1:1), absence of light [2]: 37.7 M^−1 S^−1
kcat/Km of ATP hydrolysis of purified OmrDE with OcHeR WT (1:1), presence of light (532 nm) [2]: 58.4 M^−1 S^−1
Kd (OmrE (OmrE-His) [3]): 24 µM
Kd [4]: 29 µM
Kd [5]: 122 µM
DAPI translocation capacity of OmrDE co-expressed with OcHeR WT in IMVs at 15 min, presence of light against absence of light [6]: 3 fold
half-life (t1/2) of the G state (554 nm) of the OcHeR photocycle with OmrDE against OcHeR WT alone [6]: 1.6 fold
half-life (t1/2) of the O state (618 nm) of the OcHeR photocycle with OmrDE against OcHeR WT alone [6]: 2.2 fold
Kd [7]: 62 µM
Kd (OmrE (OmrE-His) [8]): 46 µM
Kd [9]: 46 µM
